Measurements: publication doi:10.1101/2020.02.13.948224 (bioRxiv, 2020)
Changes are numbered by the printed parent chain.

B1: human SMT3-MAML1 (aa 1-280) (domain or fragment, UniProt Q92585 1-280, looked up)
chain: MVLPTCPMAEFALPRHSAVMERLRRRIELCRRHHSTCEARYEAVSPERLELERQHTFALHQRCIQAKAKRAGKHRQPPAATAPAPAAPAPRLDAADGPEHGRPATHLHDTVKRNLDSATSPQNGDQQNGYGDLFPGHKKTRREAPLGVAISSNGLPPASPLGQSDKPSGADALQSSGKHSLGLDSLNKKRLADSSLHLNGGSNPSESFPLSLNKELKQEPVEDLPCMITGTVGSISQSNLMPDLNLNEQEWKELIEELNRSVPDEDMKDLFNEDFEEKKD
B2: mouse N1ICD (aa 1744-2113) (domain or fragment, UniProt Q01705 1744-2113, looked up)
chain: VLLSRKRRRQHGQLWFPEGFKVSEASKKKRREPLGEDSVGLKPLKNASDGALMDDNQNEWGDEDLETKKFRFEEPVVLPDLSDQTDHRQWTQQHLDAADLRMSAMAPTPPQGEVDADCMDVNVRGPDGFTPLMIASCSGGGLETGNSEEEEDAPAVISDFIYQGASLHNQTDRTGETALHLAARYSRSDAAKRLLEASADANIQDNMGRTPLHAAVSADAQGVFQILLRNRATDLDARMHDGTTPLILAARLAVEGMLEDLINSHADVNAVDDLGKSALHWAAAVNNVDAAVVLLKNGANKDMQNNKEETPLFLAAREGSYETAKVLLDHFANRDITDHMDRLPRDIAQERMHHDIVRLLDEYNLVRSPQ
B3: mouse N1^RAICD (aa 1744-2113) (domain or fragment, UniProt Q01705 1744-2113, looked up)
chain: B2 chain with R231A

What was measured:
mouse RBPj (aa 53-474) = mouse RBPj (aa 53-474) (mouse, UniProt P31266 53-474); test: native gel or EMSA
Chain of mouse RBPj (aa 53-474) (P31266 53-474): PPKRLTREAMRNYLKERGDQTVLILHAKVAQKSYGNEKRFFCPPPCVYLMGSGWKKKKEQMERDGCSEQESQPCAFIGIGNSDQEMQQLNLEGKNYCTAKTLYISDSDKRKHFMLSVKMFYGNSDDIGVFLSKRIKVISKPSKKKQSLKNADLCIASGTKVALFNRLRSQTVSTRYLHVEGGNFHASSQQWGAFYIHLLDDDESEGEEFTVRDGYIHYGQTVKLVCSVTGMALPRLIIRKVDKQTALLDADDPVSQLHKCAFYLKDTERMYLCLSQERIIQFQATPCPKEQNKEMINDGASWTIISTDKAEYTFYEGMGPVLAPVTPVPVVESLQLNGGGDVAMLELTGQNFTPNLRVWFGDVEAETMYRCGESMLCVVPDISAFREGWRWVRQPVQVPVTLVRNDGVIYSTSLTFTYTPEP

native gel or EMSA = target: the molecule itself; test: native gel or EMSA

| Binder | binding result (mouse RBPj (aa 53-474)) | binding result (native gel or EMSA) |
| --- | --- | --- |
| B1 | binds |  |
| B2 | binds | binds |
| B3 | binds |  |
